Target: SARS-CoV-2 spike protein receptor-binding domain (RBD) (SARS-CoV-2, UniProt P0DTC2 319-541)
Assay: SPR

B1: #41 (antibody, V domains shown)
VH: QVQLVQSGAEVKKPGASVKVSCKVSGYTSPATIHWVRQAPGKGLEWMGGISPYKGDTIYAQKFQGRVTMTEDTSTDTAYMELSSLKSEDTAVYYCAKDSYYYDSSGSGLGGGFDYWGQGTLVTVSS
VL: DIQMTQSPSSVSASVGDRVTITCRASRDISSYLAWYQQKPGKAPKLLIYGASTRASGVPSRFSGSGSGTDFTLTISSLQPEDFANYYCLQYSIYPWTFGGGTKVEIK
B1 was tested, and the Kd was 0.295 nM.

Reference: paper PMC8786865 (2022)
